Publication PMC2993744
Where “and” joins values, the source holds several entries; their conditions need not be identical. Equal values may be shown once.

What was measured:
[1] = target: TatB(L54Bpa) (E. coli) (UniProt P69425); experiment: cross-linking
[2] = target: TatB, wild type (E. coli) (UniProt P69425); experiment: cross-linking

Substance | stoichiometry N [1] | percent of the vesicle-associated pSufI in the TatB adduct [2]
TatB(L54Bpa) (from UniProt P69425 1-171) (natural protein) | 2 and 3 | 
pSufI(L328Bpa) (from UniProt P26648 1-470) (natural protein) |  | 15%
